Data: publication doi:10.1101/2025.01.26.634952 (bioRxiv, 2025)

Biological target: the molecule itself
Assay: SAXS

B1: SmFtsZ-WT (full-length Streptococcus mutans FtsZ) (natural protein)
chain: MAFSFDAASVQGAVIKVIGVGGGGGNAINRMIDEGVAGVEFIAANTDIQALSSSKAETVIQLGPKLTRGLGAGGQPEIGRKAAEESEEALTEALTGADMVFITAGMGGGSGTGAAPVIARIAKGLGSLTVAVVTRPFGFEGSKRGNYAIEGINELRDEVDTLLIISNNNLLEIVDKKTPLLEALSEADNVLRQGVQGITDLITSPGLINLDFADVKTVMASKGNALMGIGIGTGEERVVEAARKAIYSPLLETTIDGAEDVIVNVTGGLDMTLTEAEEASEIVNQAAGHGVNIWLGTSIDDSMKDEIRVTVVATGVRPDKADQVSGIRRQASSYTQPRAQQQAPSSNSAQPNFERRQNFDFDLNESPEMPAAEPQQTQSSSEPQQSAFGDWNLRRENIARPTEGEIDSQLKMSSFSADSDDDDELETPPFFKNR
B1: binds.

B2: SmFtsZ-R68A (natural protein)
chain: MAFSFDAASVQGAVIKVIGVGGGGGNAINRMIDEGVAGVEFIAANTDIQALSSSKAETVIQLGPKLTAGLGAGGQPEIGRKAAEESEEALTEALTGADMVFITAGMGGGSGTGAAPVIARIAKGLGSLTVAVVTRPFGFEGSKRGNYAIEGINELRDEVDTLLIISNNNLLEIVDKKTPLLEALSEADNVLRQGVQGITDLITSPGLINLDFADVKTVMASKGNALMGIGIGTGEERVVEAARKAIYSPLLETTIDGAEDVIVNVTGGLDMTLTEAEEASEIVNQAAGHGVNIWLGTSIDDSMKDEIRVTVVATGVRPDKADQVSGIRRQASSYTQPRAQQQAPSSNSAQPNFERRQNFDFDLNESPEMPAAEPQQTQSSSEPQQSAFGDWNLRRENIARPTEGEIDSQLKMSSFSADSDDDDELETPPFFKNR
B2: binds.
